Experimental findings from patent KR20130033273A (dated 2013) are described below.

In the assay the target is T1, IGF-1R (Insulin-like growth factor 1 receptor) on the surface of MCF-7 cells (UniProt P08069 31-1367, limits assumed).
T1 construct: whole, on cells; Endogenous receptor of MCF-7 cells; also called MCF-7 세포 표면 IGF-1R 항원; IGF-1 수용체
Put plainly: flow cytometry (FACS) on MCF-7 cells, 1 ug/ml antibody, anti-human IgG-FITC. (In flow cytometry, cells or beads pass a laser one at a time.)

T1 sequence (P08069 31-1367 limits assumed): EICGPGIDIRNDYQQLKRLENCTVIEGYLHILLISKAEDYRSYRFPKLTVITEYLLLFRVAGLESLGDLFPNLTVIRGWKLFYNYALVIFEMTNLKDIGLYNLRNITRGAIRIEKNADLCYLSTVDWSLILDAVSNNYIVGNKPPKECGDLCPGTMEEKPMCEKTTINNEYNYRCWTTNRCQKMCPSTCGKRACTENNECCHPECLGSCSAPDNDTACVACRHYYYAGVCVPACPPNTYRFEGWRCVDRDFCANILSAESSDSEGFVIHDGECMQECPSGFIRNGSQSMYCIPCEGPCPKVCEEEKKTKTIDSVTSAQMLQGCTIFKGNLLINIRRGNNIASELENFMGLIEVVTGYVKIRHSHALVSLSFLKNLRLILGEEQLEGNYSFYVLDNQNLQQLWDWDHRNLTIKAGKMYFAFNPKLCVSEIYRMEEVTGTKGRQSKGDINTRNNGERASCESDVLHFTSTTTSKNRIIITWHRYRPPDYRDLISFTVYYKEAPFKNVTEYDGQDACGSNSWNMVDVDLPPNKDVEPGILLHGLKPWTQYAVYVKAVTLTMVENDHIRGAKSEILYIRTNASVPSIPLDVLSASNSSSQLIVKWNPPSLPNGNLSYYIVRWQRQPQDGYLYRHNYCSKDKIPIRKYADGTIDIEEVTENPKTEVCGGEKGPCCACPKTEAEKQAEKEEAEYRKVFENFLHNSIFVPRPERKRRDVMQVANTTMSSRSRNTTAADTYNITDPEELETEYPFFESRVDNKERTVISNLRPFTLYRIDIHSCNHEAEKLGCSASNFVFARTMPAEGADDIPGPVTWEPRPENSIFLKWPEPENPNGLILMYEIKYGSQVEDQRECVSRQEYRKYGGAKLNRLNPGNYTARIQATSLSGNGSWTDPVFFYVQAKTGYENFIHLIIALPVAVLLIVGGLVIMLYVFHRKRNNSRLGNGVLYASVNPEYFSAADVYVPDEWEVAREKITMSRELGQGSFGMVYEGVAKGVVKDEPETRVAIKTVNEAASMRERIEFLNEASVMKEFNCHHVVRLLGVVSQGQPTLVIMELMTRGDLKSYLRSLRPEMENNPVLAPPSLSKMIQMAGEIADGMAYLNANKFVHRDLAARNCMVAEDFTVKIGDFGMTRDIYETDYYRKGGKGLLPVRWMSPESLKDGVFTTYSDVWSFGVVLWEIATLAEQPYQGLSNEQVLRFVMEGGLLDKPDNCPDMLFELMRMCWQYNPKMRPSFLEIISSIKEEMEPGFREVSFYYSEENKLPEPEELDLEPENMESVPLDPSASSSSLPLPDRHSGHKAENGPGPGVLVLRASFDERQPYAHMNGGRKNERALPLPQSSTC

B1: 항IGF-1R 항체(A12) (antibody, human IgG1, lambda, V domains shown)
VH: EVQLVQSGAEVKKPGSSVKVSCKASGGTFSSYAISWVRQAPGQGLEWMGGIIPIFGTANYAQKFQGRVTITADKSTSTAYMELSSLRSEDTAVYYCARAPLRFLEWSTQDHYYYYYMDVWGKGTTVTVSS
VL: SSELTQDPAVSVALGQTVRITCQGDSLRSYYATWYQQKPGQAPILVIYGENKRPSGIPDRFSGSSSGNTASLTITGAQAEDEADYYCKSRDGSGQHLVFGGGTKLTVLG
notes: IgG form; also called 항암항체(A12); Imclone사(A12) 항IGF-1R 항체
On to B1, for which the binding result is reported as “binds”.
